Experimental findings from PMC5261807 (2017) are described below.

Non-standard residues stand in square brackets, D forms with d. Primed or numbered codes have the meaning given here. No end group written: not given here. Me2a″ = asymmetric dimethylarginine (Rme2a); Arg(Me2a) = CN(C)C(=N)NCCC[C@H](N)C(=O)O; Lys(Me3) = C[N+](C)(C)CCCC[C@H](N)C(=O)O; Arg(Me2s) = CN=C(NC)NCCC[C@H](N)C(=O)O; pT = C[C@@H](OP(=O)(O)O)[C@H](N)C(=O)O; Lys(Me2) = CN(C)CCCC[C@H](N)C(=O)O; Me2s = symmetric dimethyl (on Arg); pS = N[C@@H](COP(=O)(O)O)C(=O)O; Lys(Me) = CNCCCC[C@H](N)C(=O)O; Me3 = trimethyl (on Lys)

T1: Bdf1 bromodomain 1 (GST-tagged, WT) (Saccharomyces cerevisiae (strain ATCC …, UniProt P35817))
T1 chain: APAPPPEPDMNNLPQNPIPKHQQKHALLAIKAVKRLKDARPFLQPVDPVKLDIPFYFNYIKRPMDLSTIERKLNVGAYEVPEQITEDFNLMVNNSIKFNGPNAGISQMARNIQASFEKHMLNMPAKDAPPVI

T2: Bdf1 bromodomain 2 (GST-tagged, WT) (Saccharomyces cerevisiae (strain ATCC …, UniProt P35817))
T2 chain: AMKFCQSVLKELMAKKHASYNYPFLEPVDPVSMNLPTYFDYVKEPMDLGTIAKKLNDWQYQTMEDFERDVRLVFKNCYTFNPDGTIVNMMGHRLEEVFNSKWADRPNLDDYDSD

B1: H2a 1-19 (peptide)
chain: SGRGKQGGKARAKAKSRSS
modifications: histone peptides carry modifications given inline in the sequence and in columns 4-7 (Kac, Kme1/2/3, Rme2a/s, Cit, pS/pT); N-terminus free or acetylated

One assay has as its target T1, Bdf1 bromodomain 1 (GST-tagged, WT). Put plainly: histone peptide array probed with recombinant GST-bromodomain, signal normalised to myc peptide control.
Turning to A[Arg(Me2s)]TK(Ac)QTARKSTGGKAPRKQ, the binding score is 0.0172.

As for ARTKQTA[Arg(Me2s)][Lys(Me2)][pS]TGGKAPRKQ, the binding score was found to be 0.000179.

With ARTKQTARKSTGGKAPRKQ (A R T K Q T A R Kac S T G G Kac A P R K Q), the binding score worked out at 0.108.

On to SGRGKGGKGLGKGGAKRHR (S G R G K G G Kac G L G K G G A Kac R H R), for which the binding score was 0.0534.

As for A[Arg(Me2a)][pT][Lys(Me2)]QTARKSTGGKAPRKQ, the binding score is 0.

As to SGRGKGGKGLGKGGAKRHR (S G Rme2a G Kac G G Kac G L G Kac G G A K R H R), the binding score was determined as 0.29.

ARTKQTARKSTGGK(Ac)APRKQ: the binding score stood at 0.00108.

PRKQLATKAARK[pS]APATGG [H3 16-35]: the binding score turned out to be 0.

As to ARTKQTARKSTGGKAPRKQ (A Rme2a T Kac Q T A Rme2s Kac S T G G K A P R K Q), the binding score was found to be 0.0518.

As to SGRGKGGKGLGKGGAKRHR (pS G R G Kac G G K G L G K G G A K R H R), the binding score came out at 0.00108.

Consider ARTKQTA[Arg(Me2s)]K(Me)S[pT]GGKAPRKQ, for which the binding score turned out to be 0.

With ARTKQTARKSTGGKAPRKQ (A Rme2a T Kme2 Q T A R Kme2 S T G G K A P R K Q), the binding score was 0.

Regarding ARTKQTARKSTGGKAPRKQ (A R T K Q T A R Kme2 pS T G G K A P R K Q), the binding score worked out at 0.00108.

In the case of ARTKQTARKSTGGKAPRKQ (A R T Kme2 Q T A Rme2s Kac S T G G K A P R K Q), the binding score worked out at 0.0301.

With ARTKQTARKSTGGKAPRKQ (A R T K Q T A Rme2s Kme3 pS T G G K A P R K Q), the binding score was determined as 0.00305.

In the case of A[Arg(Me2a)]T[Lys(Me3)]QTA[Arg(Me2s)][Lys(Me)]STGGKAPRKQ, the binding score is 0.

For PDPAK(Ac)SAPAPKKG[pS]KKAVT, the binding score is 0.00412.

Regarding ARTKQTARKSTGGKAPRKQ (A Rme2s T Kac Q T A Rme2s Kac S T G G K A P R K Q), the binding score is 0.0405.

Take PDPAKSAPAPKKGSKKAVT (not fully specified): the binding score was 0.

B1: the binding score was 0.

With SGRGKGGKGLGKGGAKRHR (S G R G K G G Kac G L G Kac G G A K R H R), the binding score was determined as 0.18.

Turning to ARTKQTARKSTGGKAPRKQ (A Rme2s T Kme1 Q T A Rme2s Kme3 S T G G K A P R K Q), the binding score worked out at 0.00161.

With AR(Me2s)TK(Ac)QTAR(Me2s)K(Me)STGGKAPRKQ, the binding score worked out at 0.00161.

In the case of ARTK(Me3)QTAR(Me2s)K(Ac)STGGKAPRKQ, the binding score stood at 0.0484.

Turning to A[Arg(Me2s)]T[Lys(Me2)]QTAR[Lys(Me3)]STGGKAPRKQ, the binding score turned out to be 0.

On to ARTKQTARKSTGGKAPRKQ (A Rme2s T Kme2 Q T A Rme2a Kme1 S T G G K A P R K Q), for which the binding score was found to be 0.

In the case of PDPAK(Ac)SAPAPKK(Ac)GSKKAVT, the binding score amounted to 0.

In the case of AR[pT]K(Ac)QTARKSTGGKAPRKQ, the binding score amounted to 0.0321.

Regarding [pS]GRGK(Ac)QGGKARAK(Ac)AKSRSS, the binding score stood at 0.

With AR(Me2a″)TK(Ac)QTAR(Me2a″)K(Ac)STGGKAPRKQ, the binding score stood at 0.0387.

Take SGRGKGGKGLGKGGAKRHR (S G Rme2a G Kac G G K G L G K G G A K R H R): the binding score was 0.

With ARTKQTARKSTGGKAPRKQ (A Rme2a T Kme1 Q T A Rme2a Kac S T G G K A P R K Q), the binding score was found to be 0.0124.

Consider SGRGKQGGK(Ac)ARAK(Ac)AKSRSS, for which the binding score is 0.0104.

As to ARTKQTA[Arg(Me2a)]K(Ac)[pS][pT]GGKAPRKQ, the binding score came out at 0.00663.

A further assay deals with T2, Bdf1 bromodomain 2 (GST-tagged, WT). The description is as above.
As to A[Arg(Me2s)]TK(Ac)QTARKSTGGKAPRKQ, the binding score was 0.00482.

With ARTKQTA[Arg(Me2s)][Lys(Me2)][pS]TGGKAPRKQ, the binding score was determined as 0.00541.

With ARTKQTARKSTGGKAPRKQ (A R T K Q T A R Kac S T G G Kac A P R K Q), the binding score was 0.209.

As to SGRGKGGKGLGKGGAKRHR (S G R G K G G Kac G L G K G G A Kac R H R), the binding score amounted to 0.161.

For A[Arg(Me2a)][pT][Lys(Me2)]QTARKSTGGKAPRKQ, the binding score came out at 0.00246.

Consider SGRGKGGKGLGKGGAKRHR (S G Rme2a G Kac G G Kac G L G Kac G G A K R H R), for which the binding score amounted to 0.386.

Take ARTKQTARKSTGGK(Ac)APRKQ: the binding score amounted to 0.0733.

For the molecule PRKQLATKAARK[pS]APATGG [H3 16-35], the binding score was 0.

For ARTKQTARKSTGGKAPRKQ (A Rme2a T Kac Q T A Rme2s Kac S T G G K A P R K Q), the binding score was found to be 0.0869.

For the molecule SGRGKGGKGLGKGGAKRHR (pS G R G Kac G G K G L G K G G A K R H R), the binding score is 0.069.

Take ARTKQTA[Arg(Me2s)]K(Me)S[pT]GGKAPRKQ: the binding score came to 0.00836.

Consider ARTKQTARKSTGGKAPRKQ (A Rme2a T Kme2 Q T A R Kme2 S T G G K A P R K Q), for which the binding score came to 0.

On to ARTKQTARKSTGGKAPRKQ (A R T K Q T A R Kme2 pS T G G K A P R K Q), for which the binding score was 0.

Take ARTKQTARKSTGGKAPRKQ (A R T Kme2 Q T A Rme2s Kac S T G G K A P R K Q): the binding score is 0.0564.

Take ARTKQTARKSTGGKAPRKQ (A R T K Q T A Rme2s Kme3 pS T G G K A P R K Q): the binding score was 0.00148.

In the case of A[Arg(Me2a)]T[Lys(Me3)]QTA[Arg(Me2s)][Lys(Me)]STGGKAPRKQ, the binding score was found to be 0.

As for PDPAK(Ac)SAPAPKKG[pS]KKAVT, the binding score stood at 0.

Take ARTKQTARKSTGGKAPRKQ (A Rme2s T Kac Q T A Rme2s Kac S T G G K A P R K Q): the binding score was determined as 0.131.

In the case of PDPAKSAPAPKKGSKKAVT (not fully specified), the binding score was 0.00266.

As to B1, the binding score came out at 0.0141.

Regarding SGRGKGGKGLGKGGAKRHR (S G R G K G G Kac G L G Kac G G A K R H R), the binding score turned out to be 0.258.

As to ARTKQTARKSTGGKAPRKQ (A Rme2s T Kme1 Q T A Rme2s Kme3 S T G G K A P R K Q), the binding score is 0.

Take AR(Me2s)TK(Ac)QTAR(Me2s)K(Me)STGGKAPRKQ: the binding score worked out at 0.00561.

On to ARTK(Me3)QTAR(Me2s)K(Ac)STGGKAPRKQ, for which the binding score amounted to 0.0363.

Consider A[Arg(Me2s)]T[Lys(Me2)]QTAR[Lys(Me3)]STGGKAPRKQ, for which the binding score was 0.

In the case of ARTKQTARKSTGGKAPRKQ (A Rme2s T Kme2 Q T A Rme2a Kme1 S T G G K A P R K Q), the binding score turned out to be 0.

Take PDPAK(Ac)SAPAPKK(Ac)GSKKAVT: the binding score was determined as 0.0186.

Take AR[pT]K(Ac)QTARKSTGGKAPRKQ: the binding score was 0.0271.

As to [pS]GRGK(Ac)QGGKARAK(Ac)AKSRSS, the binding score was determined as 0.231.

For the molecule AR(Me2a″)TK(Ac)QTAR(Me2a″)K(Ac)STGGKAPRKQ, the binding score was found to be 0.0867.

Take SGRGKGGKGLGKGGAKRHR (S G Rme2a G Kac G G K G L G K G G A K R H R): the binding score is 0.0707.

As to ARTKQTARKSTGGKAPRKQ (A Rme2a T Kme1 Q T A Rme2a Kac S T G G K A P R K Q), the binding score stood at 0.00325.

On to SGRGKQGGK(Ac)ARAK(Ac)AKSRSS, for which the binding score amounted to 0.117.

On to ARTKQTA[Arg(Me2a)]K(Ac)[pS][pT]GGKAPRKQ, for which the binding score turned out to be 0.
